Assay results: article PMC6704128, “Binding of the protein ICln to α-integrin contributes to the activation of ICl_(swell) current” (Scientific Reports, 2019)

T1: TcICln (truncated Canis familiaris ICln, ICln159X), N-terminal His6-tagged (Canis familiaris, UniProt P35521 1-158)
T1 construct: ICln, Canis familiaris, truncation mutant ICln159X lacking the C-terminal part (stop at position 159); pleckstrin homology domain-like fold; NCBI NP_001003288.1; Uniformly 15N-labelled; The last residue (158) is worked out from the name ICln159X; also called truncated form of cICln; source: E. coli BL21(DE3), purified (IMAC HisTrap, Superdex 75)
T1 sequence (looked up): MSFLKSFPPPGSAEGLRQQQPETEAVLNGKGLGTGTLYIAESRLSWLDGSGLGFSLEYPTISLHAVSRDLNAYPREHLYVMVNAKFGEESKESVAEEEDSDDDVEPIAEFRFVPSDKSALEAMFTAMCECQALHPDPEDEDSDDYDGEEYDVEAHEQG


Legend:
[1] = biological target: T1, TcICln (truncated Canis familiaris …); experiment: NMR titration; 1H-15N HSQC of 15N-labelled ICln (0.8 mM) without and with the integrin peptide (equimolar amount for TcICln); 50 mM K2HPO4, pH 6.6, 90% H2O/10% D2O, 25 °C, 800 MHz; conditions: both partners purified
[2] = biological target: T2, αIIbs-YFP (transmembrane and intracellular portion, amino acids 987-1039, of the human integrin αIIb chain, … (human, UniProt P08514-1 987-1039)); experiment: FRET or BRET; acceptor photobleaching; living NIH-3T3 fibroblasts in isotonic solution; CFP donor, YFP acceptor; FRET efficiency in three plasma membrane ROIs of each cell; conditions: partners not purified
T2 construct: integrin αIIb chain, human, amino acids 987-1039 (transmembrane and intracellular portion); numbers count on NCBI NP_000410.2; The methods say 'YFP was fused to the Ct of ICln'; also called αIIb-short; αIIb short; source: NIH-3T3 fibroblasts or HEK293 Phoenix cells, transiently transfected (pEYFP-N1), in cells; not shown: YFP, C-terminal, kept

[3] = biological target: T2, αIIbs-YFP (transmembrane and …); experiment: FRET or BRET; acceptor photobleaching; HEK293 Phoenix cells; FRET efficiency in 4-5 plasma membrane ROIs of each cell; conditions: partners not purified

T2 sequence (P08514 987-1039): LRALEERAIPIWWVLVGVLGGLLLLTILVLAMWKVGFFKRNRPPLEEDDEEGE

| binding result [1] | ratio of the FRET efficiency to that of CFP and αIIbs-YFP [2] | ratio of the FRET efficiency to that of CFP and αIIbs-YFP [3] | Binder |
| --- | --- | --- | --- |
| binds | – | – | MWKVGFFKRNR (integrin αIIb chain, human, residues 1018-1028; numbers count on NCBI NP_000410.2; also called integrin αIIb peptide with the KVGFFKR motif; source: synthetic peptide) [integrin peptide (1018)MWKVGFFKRNR(1028)] |
| – | 2.9 | 2.7 | CFP-ICln (Canis familiaris ICln, wild type, CFP fused to the N-terminus) (natural protein, UniProt P35521 1-235, looked up, ICln, Canis familiaris (cDNA from the MDCK cell line), ORF of full length ICln; NCBI NP_001003288.1; The same construct was used in two cell lines (NIH-3T3 and HEK293 Phoenix); the assays tell them apart; also called CFP-ICln wt; cICln; source: NIH-3T3 fibroblasts or HEK293 Phoenix cells, transiently transfected (pECFP-C1), in cells; not shown: CFP, N-terminal, kept) MSFLKSFPPPGSAEGLRQQQPETEAVLNGKGLGTGTLYIAESRLSWLDGSGLGFSLEYPTISLHAVSRDLNAYPREHLYVMVNAKFGEESKESVAEEEDSDDDVEPIAEFRFVPSDKSALEAMFTAMCECQALHPDPEDEDSDDYDGEEYDVEAHEQGQGDIPTFYTYEEGLSHLTAEGQATLERLEGMLSQSVSSQYNMAGVRTEDSTRDYEDGMEVDTTPTVAGQFEDADVDH |
